The values below come from patent publication US20220119534A1 (DRAGONFLY THERAPEUTICS, published 2022).

Experiment [1] concerns the target T1, Human CLEC12A-His (human, UniProt Q5QGZ9 65-265).
T1 construct: Recombinant soluble protein made in house (Dragonfly Tx); The hCLEC12A spot of the HuProt array is written under this molecule as well; also called hCLEC12A-His; hCLEC12A; not shown: His tag
T1 sequence: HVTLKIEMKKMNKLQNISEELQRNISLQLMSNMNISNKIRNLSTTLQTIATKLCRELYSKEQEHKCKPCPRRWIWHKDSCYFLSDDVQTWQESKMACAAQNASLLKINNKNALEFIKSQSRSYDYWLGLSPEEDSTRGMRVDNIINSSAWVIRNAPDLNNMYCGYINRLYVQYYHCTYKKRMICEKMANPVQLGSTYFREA
Description: SPR Biacore 8K 37 C; TriNKET captured on anti-hFc chip, hCLEC12A-His as analyte; two-state fit, kd1; two-state fit; kd1.

Experiment [2] concerns the target T1, Human CLEC12A-His. Description: cell-based or functional assay.
Experiment [3] addresses T1, Human CLEC12A-His. Kind of experiment: SPR Biacore 8K 37 C; TriNKET captured on anti-hFc chip, hCLEC12A-His as analyte; two-state fit, kd2. (In SPR one partner is held on a chip, and binding of the other changes the refractive index at the surface.)
The target in experiment [4] is T1, Human CLEC12A-His. Description: SPR Biacore 8K 37 C; TriNKET captured on anti-hFc chip, hCLEC12A-His as analyte; two-state fit; two-state fit.
Experiment [5] has as its target T1, Human CLEC12A-His. Description: SPR Biacore 8K 37 C; TriNKET captured on anti-hFc chip, hCLEC12A-His as analyte; two-state fit, ka1 only; two-state fit; ka1 only.

B1: AB0053 (bispecific antibody)
chain 1: QLQLQESGPGLVKPSETLSLTCTVSGFSLTNYGLHWIRQPPGKCLEWIGVIWSGGKTDYNPSLKSRVTISKDTSKNQFSLKLSSVQAADTAVYYCAKYDYDDALDYWGQGTLVTVSSGGGGSGGGGSGGGGSGGGGSDIQMTQSPSSLSASVGDRVTITCHASQNINFWLSWYQQKPGKAPKLLIYEASNLHTGVPSRFSGSGSGTRFTLTISSLQPEDIATYYCQQSHSYPLTFGCGTKLEIKGSDKTHTCPPCPAPELLGGPSVFLFPPKPKDTLMISRTPEVTCVVVDVSHEDPEVKFNWYVDGVEVHNAKTKPREEQYNSTYRVVSVLTVLHQDWLNGKEYKCKVSNKALPAPIEKTISKAKGQPREPRVYTLPPCRDELTKNQVSLTCLVKGFYPSDIAVEWESNGQPENNYKTTPPVLVSDGSFTLYSKLTVDKSRWQQGNVFSCSVMHEALHNHYTQKSLSLSPG
chain 2: EVQLVESGGGLVKPGGSLRLSCAASGFTFSSYSMNWVRQAPGKGLEWVSSISSSSSYIYYADSVKGRFTISRDNAKNSLYLQMNSLRAEDTAVYYCARGAPIGAAAGWFDPWGQGTLVTVSSASTKGPSVFPLAPSSKSTSGGTAALGCLVKDYFPEPVTVSWNSGALTSGVHTFPAVLQSSGLYSLSSVVTVPSSSLGTQTYICNVNHKPSNTKVDKKVEPKSCDKTHTCPPCPAPELLGGPSVFLFPPKPKDTLMISRTPEVTCVVVDVSHEDPEVKFNWYVDGVEVHNAKTKPREEQYNSTYRVVSVLTVLHQDWLNGKEYKCKVSNKALPAPIEKTISKAKGQPREPQVCTLPPSRDELTENQVSLTCLVKGFYPSDIAVEWESNGQPENNYKTTPPVLDSDGSFFLYSWLTVDKSRWQQGNVFSCSVMHEALHNHYTQKSLSLSPG
chain 3: DIQMTQSPSSVSASVGDRVTITCRASQGISSWLAWYQQKPGKAPKLLIYAASSLQSGVPSRFSGSGSGTDFTLTISSLQPEDFATYYCQQGVSFPRTFGGGTKVEIKRTVAAPSVFIFPPSDEQLKSGTASVVCLLNNFYPREAKVQWKVDNALQSGNSQESVTEQDSKDSTYSLSSTLTLSKADYEKHKVYACEVTHQGLSSPVTKSFNRGEC
Broadly, the koff is a measure of how fast the partners let go of each other. High values mean fast dissociation, low ones slow dissociation. Broadly, the Kd is the equilibrium constant for the complex coming apart. The low end stands for a tighter complex, the high end for a looser complex. What is called kon is the rate constant with which the complex forms. Read a high kon as faster complex formation. With B1, the koff came to 0.0157 s⁻¹ with Human CLEC12A-His [1] and 0.000949 s⁻¹ with Human CLEC12A-His [3]. Moreover, the “EC50 (nM), KHYG-1-CD16aV cytotoxicity assay, PL-21 cells” value with Human CLEC12A-His [2] was 0.39 nM. The Kd with Human CLEC12A-His [4] turned out to be 2.41 nM. Besides, the kon in the experiment with Human CLEC12A-His [5] was found to be 1.63e+06 M⁻¹ s⁻¹.
